Data as given in patent US7968093B2, “Fully human antibodies directed against the human insulin-like growth factor-1 receptor” (ImClone LLC, priority 2003, dated 2011).

What was measured:
[1] = molecular target: T1, IGF-IR in HT-29 cells and BxPC-3 cells (Homo sapiens, UniProt P08069); assay: Total cellular IGF-IR after treatment; format: cell-based; settings: HT-29 and BxPC-3 cells; A12 after 3-6 hours
T1 construct: endogenous in cells; HT-29; BxPC-3; HEL

IGF-IR [2] = molecular target: T2, IGF-IR (Homo sapiens, UniProt P08069); assay: FACs binding analysis to human cell lines; format: cell-based; design: endogenous in cells; HT-29; BxPC-3; HEL; settings: 0.5 μg A12
Experimental: Since A12 was capable of immunoprecipitating endogenous IGF-IR, we were therefore interested in determining if A12 could also be used as detection antibody for fluorescence activated cell sorting (FACs). Human tumor cell lines were grown in culture, scraped into ice-cold PBS, and counted. Primary antibody, A12 (0.5 μg), was added to approximately 5 million cells in 250 μl PBS/5% FBS and incubated on ice for 1 hour. The cells were then diluted to 3 mls in PBS/5% FBS, pelleted, and the supernatant aspirated. Secondary phycoerythin (PE)-labeled goat anti-human IgG F(ab)2 fragment was then added in 250 μl PBS/5% FBS at 1:200 and incubated on ice for 60 minutes. Afterwards, the cells were again diluted and pelleted, as before, then resuspended in 500 μl PBS/5% FBS. FACs analysis was then performed on a Epics XL unit (Coulter). […] IGF-IR negative mouse embryo fibroblasts (R-cells) (obtained from R. Baserga, Thomas Jefferson University, Philadelphia, Pa.) served as the negative control.

MAPK = assay: IGF-I mediated MAPK phosphorylation, western blot; format: cell-based, human; settings: MCF7 cells; IGF-I stimulated
Experimental: To visualize the inhibitory effect of the anti-IGF-IR antibodies on IGF-I signaling, receptor auto-phosphorylation and downstream effector molecule phosphorylation analysis was performed in the presence or absence of antibody A12 or 2F8. The MCF7 human breast cancer cell line was selected for use due to its high IGF-IR density. Cells were plated into 10 cm or 6 well culture dishes and grown to 70-80% confluence. The monolayers were then washed twice in PBS and cultured overnight in serum free defined medium. Anti-IGF-IR antibody was then added in fresh serum-free media (100 nM-10 nM) and incubated cells 30 minutes before addition of ligand (10 nM). Cells were incubated with ligand for 10 minutes, then placed on ice and washed with ice-cold PBS. […] Tyrosine phosphorylated protein was detected on the blot using an anti-p-tyrosine antibody (Cell Signaling #9411) and an anti-mouse-HRP secondary antibody. IGF-IR was detected with monoclonal antibody C-20 (Santa Cruz). For Akt phosphorylation, phospho-Akt was detected with antibody #559029 and total Akt with #559028 (BD Pharmingen). For MAPK phosphorylation, phospho-p44/42 was detected with #9101 and total p44/42 with #9102 (Cell Signaling Tech.). […]

IGF-IR [3] = molecular target: T2, IGF-IR; assay: Human IGF-IR binding ELISA; design: recombinant extracellular portion of human IGF-IR was used to screen; settings: full IgG; 50% binding relative to saturation; read-out: Binding (ED50)
Experimental: Binding results were determined by human IGF-IR ELISA and represent the concentration of titered antibody necessary to achieve 50% binding relative to saturation. Blocking results represent the level of antibody necessary to inhibit 50% binding of ^125I-IGF-I ligand to immobilized human IGF-IR. Affinity was determined by BIAcore analysis according to manufacturer's specifications (Pharmacia BIACORE 3000). Soluble IGF-IR was immobilized on the sensor chips and antibody binding kinetics determined.

[4] = system: human colorectal cancer line HT-29; assay: HT-29 xenograft, A12 monotherapy; format: in vivo, mouse
Experimental: We were interested to determine if the anti-IGF-IR antibodies were capable of inhibiting human tumor growth in vivo in a nude mouse xenograft model. Tumors were induced in 3-4 week old athymic nude (nu/nu) mice by subcutaneous injection of 2-3 million viable HT-29 human colorectal cancer cells in cell culture medium. The tumors were allowed to establish and antibody treatment started when the tumor volume reached 200 mm^3. Ten animals were injected with tumor cells per treatment group. Antibody was injected intraperitoneally (IP) every three days at 1 mg or 0.5 mg in 0.5 ml TBS. The drug irenotecan (CPT-11) (LKT Laboratories) was injected IP (100 mg/kg) once a week for four weeks from the initiation of antibody treatment. Control animals received a class matched irrelevant human IgG antibody. Tumor measurements were performed at regular intervals using Vernier calipers, measuring height, width, and length and calculated to determine the total tumor volume. The study was terminated when control tumors reached 3000 mm^3.
Tumors were induced as previously described, and antibody treatment initiated once tumors were established (200 mm^3 size). Antibody treatment was then given at a concentration of 1 mg, 100 μg, or 10 μg every three days throughout the duration of the experiment. Ten animals were used per treatment group and control animals received a class match IgG control antibody.

A12: fully human IgG1 anti-IGF-IR antibody, lambda light chain; VH SEQ ID NO:2, VL SEQ ID NO:10; affinity matured from 2F8
effect on total cellular IGF-IR [1]: severe depletion of IGF-IR levels | FACs shift (IGF-IR [2]; HEL human leukemia cell line): fully shifted | FACs shift (IGF-IR [2]; MCF7 human breast cancer cell line): fully shifted | inhibition of MAPK phosphorylation (MAPK): considerably inhibited | EC50 (IGF-IR [3]): 0.3 nM | anti-tumor activity ([4]; 100 μg every three days): Anti-tumor activity was also observed | reduction in tumor growth compared to control ([4]; every three days, P<0.05, dose of this value not stated (1 mg, 100 μg, 10 μg tested)): 74%
